The target of this data set is NS3h wt (NS3 helicase domain) (Hepatitis C virus JFH1 (genotype 2a), UniProt Q99IB8 1218-1662). The data set is described as follows: fluorescence polarization; probe; Kd of 5 nM only assumed for fit; FP competition: 15 nM NS3h, 15 nM Cy5-dT15, 25 mM MOPS pH 7.5, 1.25 mM MgCl2, 0.0025 mg/ml BSA, 0.005% Tween20, 0.025 mM DTT, 0-2000 nM competitor, 20 min, 23 C. As to conditions: protein: recombinant; tags: C-terminal His tag; label: 5' Cy5. For orientation: In fluorescence polarisation assays a small probe gives low polarisation when free and higher when bound to something large.
Chain of NS3h wt (NS3 helicase domain) (Q99IB8 1218-1662): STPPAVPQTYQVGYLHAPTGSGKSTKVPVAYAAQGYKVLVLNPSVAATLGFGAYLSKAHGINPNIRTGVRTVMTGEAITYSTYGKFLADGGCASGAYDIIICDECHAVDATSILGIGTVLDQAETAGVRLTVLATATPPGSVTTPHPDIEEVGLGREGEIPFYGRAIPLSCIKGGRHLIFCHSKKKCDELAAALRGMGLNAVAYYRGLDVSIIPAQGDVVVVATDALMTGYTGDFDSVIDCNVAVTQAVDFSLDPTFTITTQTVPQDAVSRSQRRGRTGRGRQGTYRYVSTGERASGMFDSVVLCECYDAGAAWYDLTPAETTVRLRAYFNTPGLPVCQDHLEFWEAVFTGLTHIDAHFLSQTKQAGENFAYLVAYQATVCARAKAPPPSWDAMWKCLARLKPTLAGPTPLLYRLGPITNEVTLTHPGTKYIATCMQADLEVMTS

For TTTTTTTTTTTTTTT (ssDNA) [Cy5-dT15], the binding result is “binds”.

Values taken from publication PMC12391449, “Hepatitis C virus NS3 helicase contributes to (−) strand RNA synthesis”.
